# From article PMC2175344
# Experiments:
# Assay in all cases: fluorescence anisotropy
# [1] = target: HIV-1 nucleocapsid protein (NC) (HIV-1, UniProt P12493 378-432)
# [2] = target: HIV-1 reverse transcriptase (RT) (HIV-1, UniProt P04585;P04585 588-1147;588-1027)
# APOBEC3G (A3G) = APOBEC3G (A3G) (Homo sapiens, UniProt Q9HC16 1-384)
# Sequence of APOBEC3G (A3G) (Q9HC16 whole entry): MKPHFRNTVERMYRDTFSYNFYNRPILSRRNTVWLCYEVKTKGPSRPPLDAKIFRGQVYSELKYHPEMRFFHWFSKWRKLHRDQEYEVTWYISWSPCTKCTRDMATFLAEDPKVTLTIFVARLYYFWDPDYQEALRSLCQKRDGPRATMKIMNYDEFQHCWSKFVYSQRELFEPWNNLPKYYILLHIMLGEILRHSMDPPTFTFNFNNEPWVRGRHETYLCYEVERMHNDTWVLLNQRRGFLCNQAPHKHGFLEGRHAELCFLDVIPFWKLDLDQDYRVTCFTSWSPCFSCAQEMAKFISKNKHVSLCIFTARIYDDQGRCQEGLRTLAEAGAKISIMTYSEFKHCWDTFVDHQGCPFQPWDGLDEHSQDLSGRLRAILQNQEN
binder,measurement,setting,value
CTTCTTTGGGAGTGAATTAG (ssDNA) [5'-FAM-JL587D 20-mer],Kd,[1],84.1 ± 7.8 nM
same,Kd,[2],1840 ± 390 nM
same,Kd,APOBEC3G (A3G),238 ± 95 nM
